Data set [1] has as its target C. reinhardtii Bld12p N-terminal domain fragment (crN, residues 1-159) (C. reinhardtii). Kind of data set: ITC; dilution: crN at high concentration (1.0-1.6 mM) injected stepwise into buffer; 7°C; 12 mM HEPES pH 7, 100 mM NaCl, 0.7 mM βMe; dimer to monomers. In general terms: Isothermal titration calorimetry measures the heat released or taken up as one component is titrated into another.

Data set [2] deals with C. reinhardtii Bld12p crN-6HR fragment with F145E (crN-6HR[F145E]) (C. reinhardtii). Kind of data set: SEC-MALS; S-200 analytical size exclusion column in line with light scattering and refractive index detectors; PBS with 1 mM DTT; samples of 2-4 mg/ml.
Data set [3] shares this target. Kind of data set: dilution series monitored by CD at 222 nm; 20°C, samples reduced with DTT; fit to a two-state association (monomer-dimer) model; dimer to monomers.
Data set [4] shares this target. Kind of data set: AUC; sedimentation velocity, 20°C, 150 μM protein; 20 mM Tris-HCl pH 7.5, 150 mM NaCl, 2 mM TCEP, 1% glycerol.
Data set [5] concerns the molecule itself. Kind of data set: dilution series monitored by CD at 222 nm; 20°C, samples reduced with DTT; fit to a two-state association (monomer-dimer) model; dimer to monomers.
Data set [6] deals with the molecule itself. Kind of data set: SEC-MALS; S-200 analytical size exclusion column in line with light scattering and refractive index detectors; PBS with 1 mM DTT; samples of 2-4 mg/ml. For orientation: SEC sorts molecules by how far they enter the pores of the column.
Data set [7] concerns the molecule itself. Kind of data set: AUC; sedimentation velocity, 20°C, 200 μM protein; 20 mM Tris-HCl pH 7.5, 150 mM NaCl, 2 mM TCEP, 1% glycerol.
Data set [8] concerns the molecule itself. Kind of data set: crystal structure; X-ray crystallography; sitting drop vapor diffusion.
Data set [9] deals with the molecule itself. Kind of data set: ITC; dilution: 1.6 mM ceN injected stepwise into buffer; 7°C; 20 mM sodium phosphate pH 7, 100 mM NaCl, 1 mM DTT; dimer to monomers.
Data set [10] concerns the molecule itself. Kind of data set: AUC; sedimentation velocity, 20°C, 300 μM protein; 20 mM Tris-HCl pH 7.5, 150 mM NaCl, 2 mM TCEP, 1% glycerol.

Broadly, the Kd is a measure of binding affinity in units of concentration. In data set [1], “C. reinhardtii Bld12p N-terminal domain fragment (crN, residues 1-159) (domain or fragment)” yielded a Kd of 60 µM.
A word on the stoichiometry N: it is the number of molecules, sites or subunits per partner or assembly. With “C. reinhardtii Bld12p crN-6HR fragment with F145E (crN-6HR[F145E]) (domain or fragment)”, the stoichiometry N in [2] and in [4] was 2 throughout. In data set [3], this molecule had a Kd of 0.5 µM.

B1: C. elegans SAS-6 coiled-coil domain fragment (ceCC, residues 181-408) (domain or fragment, UniProt O62479 181-408, looked up)
chain: SSQAVKLSTFYKSADELASLRQKCGDLEKQVEKLSGVKEEFEEMSEKFKELEDEVELVKEERENIRLLVEDKEDEVADLKQDTESLQKQLEENQEELEIVGNMLREEQGKVDQLQKRNVAHQKEIGKLRAELGTAQRNLEKADQLLKRNSQQQNQQSLDMRKLGELEADLKEKDSMVESLTETIGILRKELENEKLKAAENMDSFEKLSMENENLKEKIAHYRAQRFS
notes: SAS-6, C. elegans, Uniprot ID O62479, coiled coil, residues 181-408; Cloned in pET15b; His6-tag removed by thrombin; Monomer mass 27.4 kDa as printed; also called SAS-6 ceCC; source: recombinant, bacteria; not shown: His6, N-terminal, cleaved
With B1, the Kd in data set [5] amounted to 0.9 ± 0.1 µM. For the same molecule, the “stoichiometry N” value in [6] came out at 2.

B2: C. elegans SAS-6 N terminus plus coiled coil fragment (ceN-CC, residues 1-414) (domain or fragment, UniProt O62479 1-414, looked up)
chain: MTSKIALFDQTLIASLLQPLSLNQPDFKAYKTKVKLKISEQRNETSGEKELKFEISRSDDFEFLFSETLNNEKYQILARDHDLTVDFDAFPKVIIQHLLCKNIVKNLEEDGEVDARKKAGYHSIADPGKPTEINIILDAEKNFCSFELFSKTPISKGKIFSIKLHAVRGDHLISHLLKICSSQAVKLSTFYKSADELASLRQKCGDLEKQVEKLSGVKEEFEEMSEKFKELEDEVELVKEERENIRLLVEDKEDEVADLKQDTESLQKQLEENQEELEIVGNMLREEQGKVDQLQKRNVAHQKEIGKLRAELGTAQRNLEKADQLLKRNSQQQNQQSLDMRKLGELEADLKEKDSMVESLTETIGILRKELENEKLKAAENMDSFEKLSMENENLKEKIAHYRAQRFSPAPSGL
notes: SAS-6, C. elegans, Uniprot ID O62479, N terminus plus coiled coil, residues 1-414; A His6 form from pET30a was used for electron microscopy only; source: E. coli BL21 gold (DE3), purified (glutathione sepharose, eluted by prescission protease, dialysis); not shown: GST, N-terminal, cleaved
For the molecule B2, the binding result in [7] is listed as “binds”.

B3: C. elegans SAS-6 N terminus plus coiled coil fragment with I154E (ceN-CC[I154E]) (domain or fragment, UniProt O62479 1-414, looked up)
chain: MTSKIALFDQTLIASLLQPLSLNQPDFKAYKTKVKLKISEQRNETSGEKELKFEISRSDDFEFLFSETLNNEKYQILARDHDLTVDFDAFPKVIIQHLLCKNIVKNLEEDGEVDARKKAGYHSIADPGKPTEINIILDAEKNFCSFELFSKTPESKGKIFSIKLHAVRGDHLISHLLKICSSQAVKLSTFYKSADELASLRQKCGDLEKQVEKLSGVKEEFEEMSEKFKELEDEVELVKEERENIRLLVEDKEDEVADLKQDTESLQKQLEENQEELEIVGNMLREEQGKVDQLQKRNVAHQKEIGKLRAELGTAQRNLEKADQLLKRNSQQQNQQSLDMRKLGELEADLKEKDSMVESLTETIGILRKELENEKLKAAENMDSFEKLSMENENLKEKIAHYRAQRFSPAPSGL
notes: SAS-6, C. elegans, Uniprot ID O62479, residues 1-414, I154 exchanged by glutamate; source: preparation of the mutant not described
With B3, in [7], the “stoichiometry N” value was determined as 2.

B4: C. elegans SAS-6 N-terminal domain fragment with S123E (ceN[S123E]) (domain or fragment, UniProt O62479 1-168, looked up)
chain: MTSKIALFDQTLIASLLQPLSLNQPDFKAYKTKVKLKISEQRNETSGEKELKFEISRSDDFEFLFSETLNNEKYQILARDHDLTVDFDAFPKVIIQHLLCKNIVKNLEEDGEVDARKKAGYHEIADPGKPTEINIILDAEKNFCSFELFSKTPISKGKIFSIKLHAVR
notes: SAS-6, C. elegans, Uniprot ID O62479, N-terminal domain, residues 1-168, Ser123 mutated to glutamate; The crystallised variant; Two molecules in the asymmetric unit; also called ceN variant; ceN-dimer; source: recombinant, purified, crystallised; preparation of the variant not described
As for B4, in [8], the binding result is recorded as “binds”.

B5: C. elegans SAS-6 N-terminal domain fragment (ceN, residues 1-168) (domain or fragment, UniProt O62479 1-168, looked up)
chain: MTSKIALFDQTLIASLLQPLSLNQPDFKAYKTKVKLKISEQRNETSGEKELKFEISRSDDFEFLFSETLNNEKYQILARDHDLTVDFDAFPKVIIQHLLCKNIVKNLEEDGEVDARKKAGYHSIADPGKPTEINIILDAEKNFCSFELFSKTPISKGKIFSIKLHAVR
notes: SAS-6, C. elegans, Uniprot ID O62479, N-terminal domain, residues 1-168; Cloned in a modified pET15b vector; His6-tag removed by thrombin; source: E. coli BL21 gold (DE3), purified (Ni-NTA, size exclusion chromatography); not shown: His6, N-terminal, cleaved
In data set [9], B5 yielded a Kd of about 110 µM. In data set [10], the “stoichiometry N” value is 2.

The values above are taken from article PMC3089914, “Structural Basis of the 9-Fold Symmetry of Centrioles” (Cell, 2011).
